Experimental data as given in paper doi:10.1101/2025.09.17.674891 (bioRxiv, 2025).

Experiments:
[1] = molecular target: T1, SARS-CoV-2 RBD (recombinant) (SARS-CoV-2, UniProt P0DTC2); assay: ELISA
WIV-1 RBD (recombinant) = WIV-1 RBD (recombinant) (bat sarbecovirus WIV-1, UniProt U5WI05); assay: ELISA
[2] = molecular target: T1, SARS-CoV-2 RBD (recombinant); assay: flow cytometry on cells
[3] = molecular target: RacCS203 RBD (recombinant) (Bat coronavirus RacCS203); assay: ELISA
Rs4231 RBD (recombinant) = Rs4231 RBD (recombinant) (Bat SARS-like coronavirus, isolate …, UniProt A0A2D1PXA9); assay: ELISA

B1: V1WT_06 IgG (antibody, V domains shown)
VH: EVQLVQSGAEVKKPGASVKVSCKASGYTFSSHGISWVRQAPGQGLEWMGWISTYNGNTNSAQNLQGRVTMTADTSTSTAYMELRSLRSDDTAVYYCARGPWGYCSGTSCYYWTPDNPAYSYHGMDVWGQGTTVTVSS
VL: not shown
For B1, the “fold increase in binding of the IgG over the Fab” value [1] was 1.3 fold.

B2: V1WT_06 Fab (Fab, V domains shown)
VH: EVQLVQSGAEVKKPGASVKVSCKASGYTFSSHGISWVRQAPGQGLEWMGWISTYNGNTNSAQNLQGRVTMTADTSTSTAYMELRSLRSDDTAVYYCARGPWGYCSGTSCYYWTPDNPAYSYHGMDVWGQGTTVTVSS
VL: not shown
B2: binds (WIV-1 RBD (recombinant)).

B3: VA14_26 IgG (antibody, V domains shown)
VH: QVQLQQWGAGLLKPSDTLSLTCGISGGPFSGYYWSWIRQPPGKGLEWLGEINHSGITTYNPSLKSRGTISVDTSKRQISLKLASVTAADTAVYYCARFAYGDYGWDYSSDMDVWGKGTTVTVSS
VL: DIQLTQSPSTLSASVGDRVTITCRASQSISTWLAWHQQIPGKAPKLLIYRASTLQSGVPSRFSGSGSGTEFTLTISSLQPDDFATYYCQQYYSVRTFGQGTKVDIK
B3: binds [2].

B4: V1WT_41 IgG (antibody, V domains shown)
VH: QVQLQESGPGLVKPSETVSVTCTVSGGSITRSNYYWGWIRQPPGKGLEWIGSIFYNGNTNYNPSLKSRLTISVDTSKNQFSLKLSSVTAADTAVYYCARTAPYYYDRSGYYQKEEYFQRWGQGTLVTVSS
VL: EIVMTQSPSTLSASVGDRVTITCRASQSISTWLAWYQQKPGKAPNLLIYQASSLESGVPSRFSGSGSGTEFTLTISSLQPDDFATYYCQQYNNYPRTFGQGTKLEIK
B4: binds [3]; binds [1]; binds (Rs4231 RBD (recombinant)).
